Measurements reported in the supplement of paper PMC7877785.
± gives the uncertainty stated by the source.

Assay: self-splicing fitness, log relative to wild type (ln ratio); higher = more splicing; Tetrahymena group I intron in knt gene, E. coli kanamycin selection, DiMSum; sequences stand for … in CUCUCU…GGAGGGAAAAGUUAUCAGGCAUGCACCUGGUAGCUAGUCUUUAAACCAAUAGAUUGCAUCGGUUUAAAAGGCAAGACCGUCAAAUUGCGGGAAAGGGGUCAACAGCCGUUCAGUACCAAGUCUCAGGGGAAACUUUGAGAUGGCCUUGCAAAGGGUAUGGUAAUAAGCUGACGGACAUGGUCCUAACCACGCAGCCAAGUCCUAAGUCAACAGAUCUUCUGUUGAUAUGGAUGCAGUUCACAGACUAAAUGUCGGUCGGGGAAGAUGUAUUCUUCUCAUAAGAUAUAGUCGGACCUCUCCUUAAUGGGAGCUAGCGGAUGAAGUGAUGCAACACUGGAGCCGCUGGGAACUAAUUUGUAUGCGAAAGUAUAUUGAUUAGUUUUGGAGUACUCGUGGUCG
Summary of the method: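 Fitness was computed with DiMSum as the error-weighted combination of replicate fold changes, kanamycin versus none, each normalised to wild type. The library randomised all eight intron nucleotides of the P1ex region, with the intron placed in the knt kanamycin-resistance gene on pET-22b(+) in E. coli BL21(DE3). Six replicate transformations were grown overnight at 37°C or 30°C on LB agar with or without 25 μg/mL kanamycin, plus 100 μg/mL carbenicillin, 50 μM IPTG and 0.2% rhamnose. Pooled colonies were amplicon-sequenced on an Illumina HiSeq 2500.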

Sequence	self-splicing fitness (ln) (30 °C)	self-splicing fitness (ln) (37 °C)
AAUGAGCAAUAUUACGGUGU	-4.53 ± 0.29	-2.55 ± 0.19
AAGCAGCAAUAUUACGACUA	-0.00923 ± 0.1	-0.791 ± 0.13
GUAUAGCAAUAUUACGCCAU	-2.96 ± 0.32	-1.6 ± 0.22
CUGCAGCAAUAUUACGGGAG	-2.74 ± 0.11	-1.79 ± 0.12
AUGUAGCAAUAUUACGCAUC	-3.66 ± 0.27	-2.51 ± 0.45
UCAGAGCAAUAUUACGUGGC	-3.85 ± 0.25	-2.32 ± 0.26
AGUAAGCAAUAUUACGGCGC	-1.02 ± 0.11	-0.433 ± 0.13
CUGCAGCAAUAUUACGUAGU	-4.54 ± 0.45	-2.5 ± 0.28
CACGAGCAAUAUUACGAUCG	-1.14 ± 0.077	-0.291 ± 0.083
CGGAAGCAAUAUUACGGUAU	-4.04 ± 0.16	-1.95 ± 0.098
CUUCAGCAAUAUUACGAAAA	-2.29 ± 0.2	-3.03 ± 0.35
UGUGAGCAAUAUUACGCGUG	-1.92 ± 0.11	-1.75 ± 0.11
GGACAGCAAUAUUACGCACC	-2.25 ± 0.25	-1.8 ± 0.38
GAAGAGCAAUAUUACGGAUC	-1.1 ± 0.071	-1.1 ± 0.09
CUAGAGCAAUAUUACGCUUG	-3.03 ± 0.21	-1.83 ± 0.23
UAAAAGCAAUAUUACGCAGC	–	-2.47 ± 0.39
AUAUAGCAAUAUUACGGGAA	-2.9 ± 0.2	-2.23 ± 0.19
UCAUAGCAAUAUUACGUGUC	-3.2 ± 0.21	-3.08 ± 0.27
UAAUAGCAAUAUUACGAAUA	-2.51 ± 0.34	-1.28 ± 0.17
GGUUAGCAAUAUUACGUGCA	-0.869 ± 0.19	-0.121 ± 0.18
UGCCAGCAAUAUUACGAGGC	-4.02 ± 0.42	-1.44 ± 0.18
GCUAAGCAAUAUUACGUGUC	-2.75 ± 0.13	-2.22 ± 0.14
UGACAGCAAUAUUACGUAAA	-1.01 ± 0.08	-1.26 ± 0.11
CUCAAGCAAUAUUACGCGAG	-2.5 ± 0.2	-3.14 ± 0.3
AGAGAGCAAUAUUACGGACC	-2.79 ± 0.3	-1.05 ± 0.33

Sequence	self-splicing fitness (ln) (30 °C)	self-splicing fitness (ln) (37 °C)
GCUAAGCAAUAUUACGUUAU	-1.7 ± 0.072	-1.48 ± 0.12
CCGAAGCAAUAUUACGCACA	-3.87 ± 0.37	-2.59 ± 0.28
ACGGAGCAAUAUUACGUGGG	-3.99 ± 0.18	-2.29 ± 0.15
CUACAGCAAUAUUACGCUAG	-3.58 ± 0.18	-2.36 ± 0.23
GCUUAGCAAUAUUACGAGAG	-1.52 ± 0.23	-0.67 ± 0.2
GGUGAGCAAUAUUACGAAAC	-2.41 ± 0.24	-1.02 ± 0.27
GUCCAGCAAUAUUACGGGAU	-4.04 ± 0.2	-2.76 ± 0.22
UUUCAGCAAUAUUACGAGUA	-1.3 ± 0.11	-0.691 ± 0.1
GCGUAGCAAUAUUACGGCUU	-1.21 ± 0.11	-0.0921 ± 0.14
CCCGAGCAAUAUUACGGGAC	-3.05 ± 0.18	-1.89 ± 0.19
UUCGAGCAAUAUUACGAAAC	–	-1.41 ± 0.43
GGCAAGCAAUAUUACGAGUU	-1.94 ± 0.081	-0.521 ± 0.088
AAUCAGCAAUAUUACGCAUC	-0.287 ± 0.082	0.0734 ± 0.094
AAGAAGCAAUAUUACGGAUG	-1.8 ± 0.076	-2.03 ± 0.12
CUCGAGCAAUAUUACGCGAG	-3.97 ± 0.42	-2.98 ± 0.47
AGUCAGCAAUAUUACGCCCG	-0.925 ± 0.12	-1.52 ± 0.17
CGUGAGCAAUAUUACGUUGU	-4.24 ± 0.26	-1.58 ± 0.17
AUACAGCAAUAUUACGACUC	-0.976 ± 0.086	0.311 ± 0.11
GAAUAGCAAUAUUACGACAC	-0.0325 ± 0.3	-0.0524 ± 0.23
UCGCAGCAAUAUUACGUACA	-1.62 ± 0.15	-0.509 ± 0.12
CGUAAGCAAUAUUACGCUAG	-2.48 ± 0.13	-0.429 ± 0.14
UUCUAGCAAUAUUACGCUGA	-1.04 ± 0.31	-0.752 ± 0.25
CCAGAGCAAUAUUACGUAAC	-3.56 ± 0.37	-1.96 ± 0.32
ACGUAGCAAUAUUACGGUAU	-2.02 ± 0.11	-1.56 ± 0.12
AAGAAGCAAUAUUACGUCCC	-1.06 ± 0.16	0.89 ± 0.21

Sequence	self-splicing fitness (ln) (30 °C)	self-splicing fitness (ln) (37 °C)
ACGAAGCAAUAUUACGGUUG	-2.29 ± 0.07	-1.31 ± 0.081
CCUCAGCAAUAUUACGUCUA	-3.41 ± 0.26	-2.46 ± 0.28
CCAUAGCAAUAUUACGUUAG	-3.33 ± 0.13	-2.01 ± 0.13
AUUCAGCAAUAUUACGCGAG	-0.677 ± 0.065	-0.126 ± 0.079
GAGGAGCAAUAUUACGUGCG	-2.06 ± 0.15	-1.39 ± 0.17
UGCCAGCAAUAUUACGAUCG	-0.0468 ± 0.067	0.0388 ± 0.079
GGAGAGCAAUAUUACGGGUU	-3.71 ± 0.24	-2.46 ± 0.19
UUGAAGCAAUAUUACGGUUG	-0.894 ± 0.053	-0.569 ± 0.07
GAUUAGCAAUAUUACGACUU	0.263 ± 0.12	-0.24 ± 0.12
AAGGAGCAAUAUUACGCUCA	–	-0.14 ± 0.37
UCUAAGCAAUAUUACGCCUC	-3.67 ± 0.35	-2.98 ± 0.47
UCUAAGCAAUAUUACGCGGA	-2.69 ± 0.3	-2.47 ± 0.24
AUCAAGCAAUAUUACGAGAA	-1.21 ± 0.49	-2.28 ± 0.28
UCCAAGCAAUAUUACGCCUC	-2.33 ± 0.29	-2.53 ± 0.28
GGCGAGCAAUAUUACGCGGG	–	-2.89 ± 0.38
CAAAAGCAAUAUUACGGUAC	-3.79 ± 0.23	-1.24 ± 0.18
UCUAAGCAAUAUUACGUUAU	-3.25 ± 0.24	-2.31 ± 0.27
UAGCAGCAAUAUUACGGUUA	-0.0652 ± 0.056	-0.181 ± 0.064
UGAAAGCAAUAUUACGCGAA	-1.52 ± 0.17	-1.05 ± 0.2
GCAUAGCAAUAUUACGUCAC	-3.21 ± 0.16	-2.08 ± 0.22
CUACAGCAAUAUUACGGUAG	-3.39 ± 0.15	-3.06 ± 0.23
UAUAAGCAAUAUUACGGAAA	-2.19 ± 0.37	-1.48 ± 0.33
CAUUAGCAAUAUUACGAAGG	-1.09 ± 0.089	-0.624 ± 0.099
AGAUAGCAAUAUUACGAAAC	-3.23 ± 0.37	–
GUUAAGCAAUAUUACGAGUC	-3.05 ± 0.12	-1.86 ± 0.15
